Measurements published in the supplement of paper PMC7877785.
± gives the uncertainty stated by the source.

Test: self-splicing fitness, log relative to wild type (ln ratio); higher = more splicing; Tetrahymena group I intron in knt gene, E. coli kanamycin selection, DiMSum; sequences stand for … in CUCUCU…GGAGGGAAAAGUUAUCAGGCAUGCACCUGGUAGCUAGUCUUUAAACCAAUAGAUUGCAUCGGUUUAAAAGGCAAGACCGUCAAAUUGCGGGAAAGGGGUCAACAGCCGUUCAGUACCAAGUCUCAGGGGAAACUUUGAGAUGGCCUUGCAAAGGGUAUGGUAAUAAGCUGACGGACAUGGUCCUAACCACGCAGCCAAGUCCUAAGUCAACAGAUCUUCUGUUGAUAUGGAUGCAGUUCACAGACUAAAUGUCGGUCGGGGAAGAUGUAUUCUUCUCAUAAGAUAUAGUCGGACCUCUCCUUAAUGGGAGCUAGCGGAUGAAGUGAUGCAACACUGGAGCCGCUGGGAACUAAUUUGUAUGCGAAAGUAUAUUGAUUAGUUUUGGAGUACUCGUGGUCG
Procedure, shortened: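 Fitness was computed with DiMSum as the error-weighted combination of replicate fold changes, kanamycin versus none, each normalised to wild type. The library randomised all eight intron nucleotides of the P1ex region, with the intron placed in the knt kanamycin-resistance gene on pET-22b(+) in E. coli BL21(DE3). Six replicate transformations were grown overnight at 37°C or 30°C on LB agar with or without 25 μg/mL kanamycin, plus 100 μg/mL carbenicillin, 50 μM IPTG and 0.2% rhamnose. Pooled colonies were amplicon-sequenced on an Illumina HiSeq 2500.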

Sequence | self-splicing fitness (ln) (30 °C) | self-splicing fitness (ln) (37 °C)
CCUAAGCAAUAUUACGGCUA | -3.69 ± 0.47 | -3.14 ± 0.25
CCUAAGCAAUAUUACGGCUU | -3.04 ± 0.15 | -3.04 ± 0.21
CCUAAGCAAUAUUACGGGAC | -3.86 ± 0.23 | -2.7 ± 0.22
CCUAAGCAAUAUUACGGGUA | -2.36 ± 0.27 | -1.67 ± 0.25
CCUAAGCAAUAUUACGGUAG | -1.27 ± 0.078 | -0.941 ± 0.097
CCUAAGCAAUAUUACGUCCA | -3.28 ± 0.25 | -2.1 ± 0.41
CCUAAGCAAUAUUACGUGGA | -2.73 ± 0.15 | -2.55 ± 0.28
CCUAAGCAAUAUUACGUGGC | -3.59 ± 0.18 | -2.85 ± 0.19
CCUAAGCAAUAUUACGUUGA | -3.74 ± 0.25 | -1.94 ± 0.17
CCUCAGCAAUAUUACGAAUC | -3.45 ± 0.28 | -2.82 ± 0.31
CCUCAGCAAUAUUACGACAU | -3.84 ± 0.024 | -2.84 ± 0.039
CCUCAGCAAUAUUACGACCC | -2.75 ± 0.38 | -2.41 ± 0.49
CCUCAGCAAUAUUACGAGAA | -3.3 ± 0.41 | -2.28 ± 0.29
CCUCAGCAAUAUUACGAGGC |  | -2.19 ± 0.31
CCUCAGCAAUAUUACGAGUG | -2.34 ± 0.14 | -0.953 ± 0.14
CCUCAGCAAUAUUACGAUGC | -4.19 ± 0.24 | -2.15 ± 0.3
CCUCAGCAAUAUUACGCAAG | -3.31 ± 0.17 | -1.71 ± 0.14
CCUCAGCAAUAUUACGCACU | -3.26 ± 0.18 | -1.63 ± 0.2
CCUCAGCAAUAUUACGCCCA | -3.18 ± 0.22 | -3.5 ± 0.39
CCUCAGCAAUAUUACGCUGA | -2.75 ± 0.35 | -3.12 ± 0.47
CCUCAGCAAUAUUACGCUUG | -4.31 ± 0.37 | -2.52 ± 0.23
CCUCAGCAAUAUUACGGAAG | -1.05 ± 0.11 | -0.549 ± 0.14
CCUCAGCAAUAUUACGGAAU | -3.72 ± 0.3 | -2.69 ± 0.25
CCUCAGCAAUAUUACGGCAU | -3.12 ± 0.13 | -2.42 ± 0.18

Sequence | self-splicing fitness (ln) (30 °C) | self-splicing fitness (ln) (37 °C)
CCUCAGCAAUAUUACGGCUA | -3.62 ± 0.4 | -1.72 ± 0.25
CCUCAGCAAUAUUACGGCUC | -2.77 ± 0.16 | -2.46 ± 0.29
CCUCAGCAAUAUUACGGGUA | -3.23 ± 0.18 | -1.9 ± 0.14
CCUCAGCAAUAUUACGGUUU | -3.37 ± 0.13 | -2.73 ± 0.16
CCUCAGCAAUAUUACGUAAU | -4.03 ± 0.21 | -2.74 ± 0.22
CCUCAGCAAUAUUACGUCAA | -4.15 ± 0.31 | -3.11 ± 0.29
CCUCAGCAAUAUUACGUGGG | -4.89 ± 0.25 | -3.15 ± 0.19
CCUCAGCAAUAUUACGUUCU | -4.28 ± 0.34 | -3.23 ± 0.36
CCUGAGCAAUAUUACGAACG | -2.81 ± 0.26 | -1.48 ± 0.27
CCUGAGCAAUAUUACGACGC | -3.08 ± 0.47 | -0.889 ± 0.22
CCUGAGCAAUAUUACGACUA | -2.81 ± 0.25 | -1.79 ± 0.24
CCUGAGCAAUAUUACGCAGC |  | -1.38 ± 0.3
CCUGAGCAAUAUUACGCGGU | -3.87 ± 0.21 | -1.54 ± 0.16
CCUGAGCAAUAUUACGCUAG | -3.02 ± 0.19 | -1.27 ± 0.17
CCUGAGCAAUAUUACGCUCU | -3.59 ± 0.43 | -2.26 ± 0.25
CCUGAGCAAUAUUACGCUGU | -4.99 ± 0.46 | -2.85 ± 0.23
CCUGAGCAAUAUUACGGACG | -2.49 ± 0.16 | -0.682 ± 0.12
CCUGAGCAAUAUUACGGAUU | -2.74 ± 0.18 | -2.34 ± 0.16
CCUGAGCAAUAUUACGGCCU | -2.68 ± 0.17 | -2.96 ± 0.3
CCUGAGCAAUAUUACGGGGG | -3.15 ± 0.16 | -1.55 ± 0.22
CCUGAGCAAUAUUACGUAGA | -3.23 ± 0.13 | -2.26 ± 0.14
CCUGAGCAAUAUUACGUAUC |  | -2.46 ± 0.23
CCUGAGCAAUAUUACGUGCA | -3.09 ± 0.21 | -1.53 ± 0.26
CCUGAGCAAUAUUACGUGCG | -3.69 ± 0.22 | -1.04 ± 0.16
